Target: CD19 (human) (UniProt P15391)
Assay: cell-based or functional assay

Sequence of UniProt P15391 (P15391 20-556): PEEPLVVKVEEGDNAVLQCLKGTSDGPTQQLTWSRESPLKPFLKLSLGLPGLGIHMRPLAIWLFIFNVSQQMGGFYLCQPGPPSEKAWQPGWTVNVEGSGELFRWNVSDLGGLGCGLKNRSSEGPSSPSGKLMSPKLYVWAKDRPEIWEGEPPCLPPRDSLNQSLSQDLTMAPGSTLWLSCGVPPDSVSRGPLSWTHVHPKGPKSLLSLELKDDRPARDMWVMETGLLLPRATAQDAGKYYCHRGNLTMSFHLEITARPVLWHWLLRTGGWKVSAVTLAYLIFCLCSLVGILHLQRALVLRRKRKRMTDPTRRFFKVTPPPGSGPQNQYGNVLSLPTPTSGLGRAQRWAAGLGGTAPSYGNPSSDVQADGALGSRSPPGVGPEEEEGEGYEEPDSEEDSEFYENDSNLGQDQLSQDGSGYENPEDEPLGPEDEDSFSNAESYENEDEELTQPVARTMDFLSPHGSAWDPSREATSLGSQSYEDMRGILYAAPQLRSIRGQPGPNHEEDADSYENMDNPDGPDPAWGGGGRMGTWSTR

## anti-CD19 activating CAR (19scFv.CD28.zeta) (from UniProt P10747 153-220; P20963 52-164)
  portion of CAR19-NK cells that acquired CD19 on their surface (trogocytosis) within minutes of co-culture with Raji targets, flow cytometry: 75%
